# Experimental data reported in the supplement of paper PMC10567573.
# B1: ZNF193 (parent)
# chain: QCIECGKSFNRHCNLIRHQKIHTV
# Variants of: B1
# Assay: protein stability index of a GFP-peptide fusion (GPS, HEK-293T) (PSI 1-6); higher = more stable
# Settings: c terminus: a fixed tail appended
# 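Also: lentivirally expressed fusions sorted by FACS into six bins by GFP to DsRed ratio, PSI derived from sequencing read proportions per bin multiplied by bin number.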
row,Variant,protein stability index
1,QCIECGKSFNRHCNLIKHQKIHTV [R17K],3.74
2,QCIECGKSFNRHCNLIEHQKIHTV [R17E],4.18
3,QCIECGKSFNRHCNLIGHQKIHTV [R17G],3.07
4,QCIECGKSFNRHCNLIPHQKIHTV [R17P],2.15
5,QCIECGKSFNRHCNLINHQKIHTV [R17N],3.24
6,QCIECGKSFNRHCNLIFHQKIHTV [R17F],2.22
7,QCIECGKSFNRHCNLIWHQKIHTV [R17W],2.66
8,QCIECGKSFNRHCNLIYHQKIHTV [R17Y],2.52
9,QCIECGKSFNRHCNLIQHQKIHTV [R17Q],3.91
10,QCIECGKSFNRHCNLIIHQKIHTV [R17I],2.31
11,QCIECGKSFNRQCNLIRHQKIHTV [H12Q],4
12,QCIECGKSFNRYCNLIRHQKIHTV [H12Y],3.27
13,QCIECGKSFNRPCNLIRHQKIHTV [H12P],3.74
14,QCIECGKSFNRKCNLIRHQKIHTV [H12K],3.98
15,QCIECGKSFNRDCNLIRHQKIHTV [H12D],3.36
16,QCIECGKSFNRGCNLIRHQKIHTV [H12G],3.02
17,QCIECGKSFNRHCNLIRHQKIHVV [T23V],3.26
18,QCIECGKSFNRHCNLIRHQKIHDV [T23D],3.13
19,QCIECGKSFNRHCNLIRHQKIHRV [T23R],3.91
20,QCIECGKSFNRHCNLIRHQKIHKV [T23K],3.47
21,QCIECGKSFNRHCNLIRHQKIHYV [T23Y],3.31
22,QCIECGKSFNRHCNLIRHQKIHGV [T23G],3.31
23,QCIECGKSFNRHCNLIRHQKIHLV [T23L],2.7
24,QCIECGKSFNRHCNLIRHQKIHEV [T23E],4.38

row,Variant,protein stability index
1,QCIECGKSFNRHCNLIRHQKIHIV [T23I],2.6
2,QCIECGKSFNRHCNLIRHQKIHPV [T23P],3.23
3,QCIECGKSFNRHNNLIRHQKIHTV [C13N],3.2
4,QCIECGKSFNRHGNLIRHQKIHTV [C13G],3.75
5,QCIECGKSFNRHHNLIRHQKIHTV [C13H],3.56
6,QCIECGKSFNRHPNLIRHQKIHTV [C13P],2.99
7,QCIECGKSFNRHWNLIRHQKIHTV [C13W],3.04
8,QCIECGKSFNRHVNLIRHQKIHTV [C13V],3.88
9,QCIECGKSFNRHENLIRHQKIHTV [C13E],4.55
10,QCIECGKSFNRHLNLIRHQKIHTV [C13L],2.73
11,QCTECGKSFNRHCNLIRHQKIHTV [I3T],4.2
12,QCEECGKSFNRHCNLIRHQKIHTV [I3E],4.31
13,QCQECGKSFNRHCNLIRHQKIHTV [I3Q],4.09
14,QCDECGKSFNRHCNLIRHQKIHTV [I3D],3.4
15,QCHECGKSFNRHCNLIRHQKIHTV [I3H],4.06
16,QCMECGKSFNRHCNLIRHQKIHTV [I3M],3.69
17,QCLECGKSFNRHCNLIRHQKIHTV [I3L],3.87
18,QCWECGKSFNRHCNLIRHQKIHTV [I3W],3.18
19,QCPECGKSFNRHCNLIRHQKIHTV [I3P],4.11
20,QCIECGKWFNRHCNLIRHQKIHTV [S8W],3.17
21,QCIECGKIFNRHCNLIRHQKIHTV [S8I],4.05
22,QCIECGKQFNRHCNLIRHQKIHTV [S8Q],3.02
23,QCIECGKFFNRHCNLIRHQKIHTV [S8F],4.03
24,QCIECGKKFNRHCNLIRHQKIHTV [S8K],3.64

row,Variant,protein stability index
1,QCIECGKSFNRHCNLIRHQKQHTV [I21Q],4.49
2,QCIECGKSFNRHCNLIRHQKLHTV [I21L],3.48
3,QCIECGKSFNRHCNLIRHQKTHTV [I21T],4.39
4,QCIECGKSFNRHCNLIRHQKCHTV [I21C],3.85
5,QCIECGKSFNRHCNLIRHQKVHTV [I21V],3.74
6,QCIECGKSFNRHCNLIRHQKKHTV [I21K],4.25
7,QCIEDGKSFNRHCNLIRHQKIHTV [C5D],2.52
8,QCIEQGKSFNRHCNLIRHQKIHTV [C5Q],2.6
9,QCIETGKSFNRHCNLIRHQKIHTV [C5T],1.95
10,QCIEPGKSFNRHCNLIRHQKIHTV [C5P],2.49
11,QCIEYGKSFNRHCNLIRHQKIHTV [C5Y],2.26
12,QCIEIGKSFNRHCNLIRHQKIHTV [C5I],1.53
13,QCIESGKSFNRHCNLIRHQKIHTV [C5S],2.56
14,QCIEGGKSFNRHCNLIRHQKIHTV [C5G],2.01
15,QCIERGKSFNRHCNLIRHQKIHTV [C5R],2.22
16,QCIECGMSFNRHCNLIRHQKIHTV [K7M],3.34
17,QCIECGSSFNRHCNLIRHQKIHTV [K7S],2.82
18,QCIECGPSFNRHCNLIRHQKIHTV [K7P],2.59
19,QCIECGHSFNRHCNLIRHQKIHTV [K7H],2.35
20,QCIECGGSFNRHCNLIRHQKIHTV [K7G],2.13
21,QCIECGLSFNRHCNLIRHQKIHTV [K7L],2.86
22,QCIECGKSFNRHCNLIRHYKIHTV [Q19Y],2.59
23,QCIECGKSFNRHCNLIRHHKIHTV [Q19H],2.72
24,QCIECGKSFNRHCNLIRHWKIHTV [Q19W],2.25

row,Variant,protein stability index
1,QCIECGKSFNRHCNLIRHGKIHTV [Q19G],2.5
2,QCIECGKSFNRHCNLIRHKKIHTV [Q19K],3.27
3,QCIECGKSFNRHCNLIRHIKIHTV [Q19I],2.8
4,QCIECGKSFNRHCNLIRHAKIHTV [Q19A],2.84
5,QCIECGKSFNRHCNLIRAQKIHTV [H18A],2.45
6,QCIECGKSFNRHCNLIRKQKIHTV [H18K],2.38
7,QCIECGKSFNRHCNLIREQKIHTV [H18E],2.33
8,QCIECGKSFNRHCNLIRSQKIHTV [H18S],2.36
9,QCIECGKSFNRHCNLIRFQKIHTV [H18F],2.4
10,QCIECGKSFNRHCNLIRVQKIHTV [H18V],1.45
11,QCIECGKSFNRHCNLIRWQKIHTV [H18W],2.21
12,QCIECGKSFNRHCNLIRIQKIHTV [H18I],2
13,QCIECGKSFNRHCNLMRHQKIHTV [I16M],3.1
14,QCIECGKSFNRHCNLYRHQKIHTV [I16Y],2.94
15,QCIECGKSFNRHCNLFRHQKIHTV [I16F],2.43
16,QCIECGKSFNRHCNLDRHQKIHTV [I16D],2.96
17,QCIECGKSFNRHCNLQRHQKIHTV [I16Q],3.64
18,QCIECGKSFNRHCNLCRHQKIHTV [I16C],3.9
19,QCIECGKSFNRHCNLKRHQKIHTV [I16K],4
20,QCIECGKSFNRHCNLERHQKIHTV [I16E],3.44
21,QCIECGKSFNRHCNLLRHQKIHTV [I16L],3.29
22,QCIECGKSFNRHCNLNRHQKIHTV [I16N],2.89
